From PMC11326354, “Mechanism of human α3β GlyR modulation in inflammatory pain and 2, 6-DTBP interaction” (Research Square, 2024)
Residue numbers refer to the chain shown, from its start. Names and notes keep the numbering of the source.

B1: human glycine receptor α3 subunit, α3em construct (receptor, UniProt O75311-1 34-464, looked up)
chain: ARSRSAPMSPSDFLDKLMGRTSGYDARIRPNFKGPPVNVTCNIFINSFGSIAETTMDYRVNIFLRQKWNDPRLAYSEYPDDSLDLDPSMLDSIWKPDLFFANEKGANFHEVTTDNKLLRIFKNGNVLYSIRLTLTLSCPMDLKNFPMDVQTCIMQLESFGYTMNDLIFEWQDEAPVQVAEGLTLPQFLLKEEKDLRYCTKHYNTGKFTCIEVRFHLERQMGYYLIQMYIPSLLIVILSWVSFWINMDAAPARVALGITTVLTMTTQSSGSRASLPKVSYVKAIDIWMAVCLLFVFSALLEYAAVNFVSRQHKELLRFRRKRKNKTEAFDMDDEVRESRFSFTAYGMGPCLQAKDGMTPKGPNHPVQVMPKSPDEMRKVFIDRAKKIDTISRACFPLAFLIFNIFYWVIYKILRHEDIHQQQD
notes: glycine receptor α3 subunit, human, NCBI NP_006520.2; 9 residues of the M3/M4 loop (A329-S337) deleted; the model description counts 422 aa in all, from A1 to D431; Four copies of this subunit stand with one β subunit in the pentamer; also called GlyR α3
B2: human glycine receptor α3 subunit, α3S346E_(FRET) construct (receptor, UniProt O75311-1 34-464, looked up)
chain: B1 chain with C41V, S337E
modifications: cysteine-reactive dye (LD555-MAL or LD655-MAL) at C358
notes: glycine receptor α3 subunit, human, NCBI NP_006520.2; α3S346Eem (A329-S337 deleted, S346E) with C41V and an A1 tag inserted between S380 and P381; Stood in the smFRET assay as part of the α3_(FRET)S346Eβ_(FRET) pentamer, which was held on the glass by the GFP in β_(FRET) (βem with C115S); also called α3_(FRET)S346E
B3: human glycine receptor α3 subunit, α3_(FRET) construct (receptor, UniProt O75311-1 34-464, looked up)
chain: B1 chain with C41V
modifications: cysteine-reactive dye (LD555-MAL or LD655-MAL) at C358
notes: glycine receptor α3 subunit, human, NCBI NP_006520.2; α3em (A329-S337 deleted) with C41V and an A1 tag inserted between S380 and P381; Stood in the smFRET assay as part of the α3_(FRET)β_(FRET) pentamer, which was held on the glass by the GFP in β_(FRET) (βem with C115S); also called α_(FRET)
B4: human glycine receptor α3 subunit, α3S346Eem construct (phosphorylation mimic) (receptor, UniProt O75311-1 34-464, looked up)
chain: B1 chain with S337E
notes: glycine receptor α3 subunit, human, NCBI NP_006520.2; α3em (A329-S337 deleted) with S346E; the model description counts 422 aa in all, from A1 to D431; Four copies of this subunit stand with one β subunit in the pentamer; also called α3emS346E

Legend:
[1] = target: human glycine receptor β subunit, βem construct (human); experiment: cryo-EM structure; heteromeric GlyR in 0.06% digitonin, 20 mM Tris-HCl pH 8.0, 200 mM NaCl, 2 mM glycine
Sequence of human glycine receptor β subunit, βem construct (human) (P48167 whole entry): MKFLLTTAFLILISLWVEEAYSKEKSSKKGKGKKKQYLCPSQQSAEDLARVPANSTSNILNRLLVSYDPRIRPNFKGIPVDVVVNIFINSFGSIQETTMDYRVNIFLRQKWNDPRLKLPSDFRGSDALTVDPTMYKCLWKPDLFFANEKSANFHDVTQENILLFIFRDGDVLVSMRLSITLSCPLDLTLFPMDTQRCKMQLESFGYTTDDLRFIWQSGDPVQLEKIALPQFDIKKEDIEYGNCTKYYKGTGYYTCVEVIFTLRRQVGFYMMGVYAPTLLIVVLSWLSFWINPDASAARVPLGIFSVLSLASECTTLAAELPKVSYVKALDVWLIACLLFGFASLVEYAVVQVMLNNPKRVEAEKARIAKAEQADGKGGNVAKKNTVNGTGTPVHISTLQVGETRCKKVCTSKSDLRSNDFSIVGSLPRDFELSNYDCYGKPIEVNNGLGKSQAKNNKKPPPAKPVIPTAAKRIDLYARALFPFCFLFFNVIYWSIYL

[2] = target: the molecule itself; experiment: as above
[3] = target: human glycine receptor β subunit, βem construct (human); experiment: cryo-EM structure; heteromeric GlyR reconstituted in saposin nanodisc with brain polar lipids extract, 20 mM Tris-HCl pH 8.0, 200 mM NaCl, 2 mM glycine
[4] = target: the molecule itself; experiment: FRET or BRET; TIRF-based single-molecule FRET between LD555 and LD655 at C358 of different α3 subunits; labelled GlyR (0.7 nM) held on NeutrAvidin/biotin anti-GFP antibody-coated glass by the GFP in β; 50 mM HEPES-NaOH pH 7.4, 150 mM NaCl, 10 mM MgCl2, 22 °C; apo, with 2 mM glycine, with 2 mM glycine and 500 μM 2, 6-DTBP
[5] = target: human glycine receptor β subunit, βem construct (human); experiment: cryo-EM structure; heteromeric GlyR in 0.06% digitonin, 2 mM glycine, with 500 μM 2, 6-DTBP throughout the purification and another 500 μM added before grid freezing

Row | Binder | stoichiometry N [1] | binding result [2] | stoichiometry N [3] | binding result [4] | stoichiometry N [5]
1 | B1 | 4 α3 per β | binds | 4 α3 per β |  | 
2 | B2 |  |  |  | binds | 
3 | B3 |  |  |  | binds | 
4 | B4 | 4 α3 per β | binds |  |  | 4 α3 per β
